± gives the standard deviation of the averaged measurements.
Tested on: ATP
Test: switch fluorescence ratio, 500 uM ATP over buffer (Cy3 cluster intensity, sum of 5 cycles each) (fold (ratio)); higher = stronger signal-on switching upon ATP binding; sequences stand for … in TCGTCGGCAGCGTCAGATGTGTATAAGAGACAGTTTTTTTTTTTTTTTTTTTTTTTTT…TC
Settings: aptamer strand: ATP DNA aptamer (quencher-CACCTGGGGGAGTATTGCGGAGGAAGG + anchor), 100 nM annealed; ATP concentration: 500 uM
Method in brief: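 Switching-strand clusters labelled with Cy3 on a modified Illumina MiSeq flow-cell were annealed to 100 nM quencher-labelled ATP aptamer, imaged in selection buffer, and re-imaged after 15 min with 500 uM ATP at 22 °C. This was done over five cycles with NaOH stripping and re-annealing in between. The fluorescence ratio is summed target-cycle over summed buffer-cycle Cy3 intensity per cluster, averaged per switch-domain sequence, excluding clusters outside 100-1000 RFU.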
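Further: ATP exposure 15 min at 22 °C before imaging.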

Row | Sequence | switch fluorescence ratio
1 | CGTTGTATTA | 0.996 ± 0.051
2 | CGTTGTGAGG | 1.03 ± 0.038
3 | CGTTGTTACA | 1.04 ± 0.018
4 | CGTTGTTAGT | 1.037 ± 0.0083
5 | CGTTGTTATG | 0.9852 ± 0.0067
6 | CGTTGTTTGG | 0.966 ± 0.058
7 | CGTTTAACTC | 1.05 ± 0.055
8 | CGTTTACTCT | 1.055 ± 0.0043
9 | CGTTTACTTT | 0.984 ± 0.059
10 | CGTTTAGCGT | 1 ± 0.0018
11 | CGTTTAGGTA | 0.982 ± 0.048
12 | CGTTTAGTAG | 1.03 ± 0.013
13 | CGTTTATGTG | 0.9953 ± 0.0089
14 | CGTTTCGCCC | 1.04 ± 0.038
15 | CGTTTCGTGT | 0.972 ± 0.066
16 | CGTTTGGAAC | 1.01 ± 0.055
17 | CGTTTGGGAG | 0.9739 ± 0.0061
18 | CGTTTGGGGT | 1.002 ± 0.0071
19 | CGTTTGTTCT | 1.03 ± 0.061
20 | CGTTTGTTGC | 0.974 ± 0.034
21 | CGTTTGTTGG | 0.984 ± 0.028
22 | CGTTTTATAG | 0.9973 ± 0.0071
23 | CGTTTTATGC | 0.947 ± 0.059
24 | CGTTTTTCTG | 0.968 ± 0.013
25 | CTAAAATTAA | 1.01 ± 0.031
26 | CTAAACTAGG | 1.02 ± 0.013

Row | Sequence | switch fluorescence ratio
27 | CTAAAGGAAG | 1.01 ± 0.029
28 | CTAAAGGACT | 0.9989 ± 0.0015
29 | CTAAATTCGT | 0.987 ± 0.08
30 | CTAACATCCG | 1.06 ± 0.025
31 | CTAACGCCTG | 1.03 ± 0.07
32 | CTAACGGAAT | 1.7 ± 0.34
33 | CTAACGGGTA | 1 ± 0.018
34 | CTAAGATCGG | 1 ± 0.02
35 | CTAAGCTTTG | 1 ± 0.035
36 | CTAAGGCCTG | 0.97 ± 0.072
37 | CTAAGGCGAT | 1.06 ± 0.12
38 | CTAAGGGGCA | 1 ± 0.019
39 | CTAAGGGGTG | 1.022 ± 0.0057
40 | CTAAGGGTTC | 0.999 ± 0.015
41 | CTAAGGTGTT | 1.325 ± 0.011
42 | CTAAGTAGAT | 1.02 ± 0.028
43 | CTAAGTTTGA | 1.03 ± 0.037
44 | CTAATCAGCT | 0.977 ± 0.019
45 | CTAATGACGT | 1.01 ± 0.015
46 | CTAATGGAGC | 0.98 ± 0.017
47 | CTAATTTGCC | 1.02 ± 0.084
48 | CTAATTTTTG | 1 ± 0.024
49 | CTACAAGTTA | 1.048 ± 0.0027
50 | CTACACGAGA | 1.09 ± 0.019
51 | CTACATGCCC | 1.15 ± 0.18
52 | CTACCGGATT | 1.07 ± 0.012

Row | Sequence | switch fluorescence ratio
53 | CTACGAAGTA | 1.01 ± 0.015
54 | CTACTCTCGC | 1.15 ± 0.019
55 | CTACTGGGGA | 1.05 ± 0.036
56 | CTACTGTGGG | 0.9651 ± 0.006
57 | CTACTTAGGG | 1.03 ± 0.036
58 | CTACTTGAGT | 0.985 ± 0.019
59 | CTAGACCAGG | 1.01 ± 0.014
60 | CTAGACGTTT | 1.01 ± 0.047
61 | CTAGAGGGGA | 1.14 ± 0.2
62 | CTAGCAACGT | 1.03 ± 0.067
63 | CTAGGAAGGT | 1.01 ± 0.033
64 | CTAGGAGGCG | 1.03 ± 0.053
65 | CTAGGATCGG | 0.993 ± 0.057
66 | CTAGGATGTA | 0.986 ± 0.015
67 | CTAGGCAGGG | 1.01 ± 0.005
68 | CTAGGCTCAA | 1.004 ± 0.004
69 | CTAGGGCTGA | 0.972 ± 0.013
70 | CTAGGGGGAT | 0.9962 ± 0.0043
71 | CTAGGGGTTT | 1 ± 0.034
72 | CTAGGTGGGG | 1.02 ± 0.025
73 | CTAGGTGTGA | 1.07 ± 0.017
74 | CTAGGTTTGA | 0.987 ± 0.019
75 | CTAGTCGTAC | 1.03 ± 0.068
76 | CTAGTCTGAA | 0.982 ± 0.031
77 | CTAGTGGTGA | 0.972 ± 0.015
78 | CTAGTTAGCT | 1.015 ± 0.0097

Row | Sequence | switch fluorescence ratio
79 | CTAGTTTTTG | 0.997 ± 0.049
80 | CTATAAACGG | 1.03 ± 0.054
81 | CTATAACGTT | 1.01 ± 0.005
82 | CTATACCGTT | 1.003 ± 0.0048
83 | CTATATGGAC | 1.05 ± 0.017
84 | CTATCACAGG | 2.01 ± 0.08
85 | CTATCAGCTA | 1.1 ± 0.03
86 | CTATCCGTGC | 1.287 ± 0.0028
87 | CTATCTGCGG | 1.04 ± 0.046
88 | CTATGAATGG | 0.975 ± 0.057
89 | CTATGAATTA | 0.984 ± 0.024
90 | CTATGCAGTG | 1.03 ± 0.024
91 | CTATGCGGGA | 1.01 ± 0.04
92 | CTATGGGGTT | 0.977 ± 0.011
93 | CTATGGGTTT | 1.024 ± 0.0032
94 | CTATGTCAAC | 1.06 ± 0.023
95 | CTATTAAGTA | 0.9802 ± 0.0064
96 | CTATTACGG | 1.04 ± 0.075
97 | CTATTATCTG | 1.01 ± 0.024
98 | CTATTCTAGG | 1.019 ± 0.0083
99 | CTATTCTTGG | 0.9524 ± 0.006
100 | CTATTTAGAT | 0.984 ± 0.011
101 | CTATTTATCA | 1.02 ± 0.053
102 | CTATTTGACT | 0.9576 ± 0.0028
103 | CTATTTTACT | 0.9873 ± 0.0073
104 | CTATTTTATT | 1.01 ± 0.068

Row | Sequence | switch fluorescence ratio
105 | CTATTTTGGG | 0.993 ± 0.026
106 | CTCAACGTTC | 1.088 ± 0.006
107 | CTCAATCTTG | 0.971 ± 0.043
108 | CTCACGGGGC | 1.16 ± 0.16
109 | CTCAGACGGA | 1 ± 0.043
110 | CTCAGCCCGT | 1.03 ± 0.095
111 | CTCAGGGGAG | 1.03 ± 0.047
112 | CTCAGTATCT | 0.972 ± 0.041
113 | CTCAGTTATG | 1.0176 ± 0.00079
114 | CTCATAGACA | 1.03 ± 0.08
115 | CTCATATTGT | 1.006 ± 0.0076
116 | CTCATCGGTT | 1.007 ± 0.0011
117 | CTCATTGGCC | 0.983 ± 0.0025
118 | CTCCATATTA | 1.057 ± 0.0068
119 | CTCCCACACG | 2.35 ± 0.36
120 | CTCCCCGGGT | 3 ± 1.1
121 | CTCCGATGTG | 1.57 ± 0.061
122 | CTCCTCGTCA | 1.17 ± 0.036
123 | CTCCTTTATT | 1.04 ± 0.037
124 | CTCGCATGCA | 1.2 ± 0.035
125 | CTCGCGACGA | 1.06 ± 0.019
126 | CTCGCGGCGG | 1.03 ± 0.034
127 | CTCGCTCGGT | 1.01 ± 0.019
128 | CTCGCTCGTT | 1.03 ± 0.018
129 | CTCGGAACCT | 1.84 ± 0.22
130 | CTCGGAATGG | 1.08 ± 0.043

Row | Sequence | switch fluorescence ratio
131 | CTCGGAATTT | 1.04 ± 0.037
132 | CTCGGATAGC | 1.02 ± 0.045
133 | CTCGGCGCGC | 1.024 ± 0.0044
134 | CTCGGCTTGT | 1.05 ± 0.044
135 | CTCGGGGGCT | 0.98 ± 0.027
136 | CTCGGGTGGG | 0.985 ± 0.037
137 | CTCGTATTTA | 0.976 ± 0.021
138 | CTCGTCAGGG | 0.995 ± 0.029
139 | CTCGTCCGAC | 1.53 ± 0.11
140 | CTCGTGGTTT | 0.981 ± 0.024
141 | CTCGTTGAAA | 0.9779 ± 0.0065
142 | CTCTAAAAAG | 1.06 ± 0.05
143 | CTCTAATATC | 1.47 ± 0.091
144 | CTCTAATTTT | 1.013 ± 0.0052
145 | CTCTAGCCTC | 1.176 ± 0.0012
146 | CTCTAGTGGC | 1.1 ± 0.074
147 | CTCTCGACAC | 1.69 ± 0.078
148 | CTCTGAAGCT | 1.06 ± 0.017
149 | CTCTGGACAG | 0.9718 ± 0.0089
150 | CTCTGGATTT | 0.97272 ± 0.00011
151 | CTCTGGGAGG | 0.995 ± 0.021
152 | CTCTGGGGCG | 1.01 ± 0.023
153 | CTCTGGGGTA | 1.05 ± 0.031

From the supplement of paper PMC10126150
